# Source: patent publication WO2023002944A1
# Molecular target: RBD domain derived from the Omicron strain (B.1.1.529 strain) (SARS-CoV-2 Omicron strain (B.1.1.529)) (UniProt P0DTC2)
# Test: SPR (Biacore T200), as in Example 4: antibody on the chip, RBD as analyte
substance,measurement,value
S309 (antibody),Kd,2.1 nM
